From US20130210709A1 (ANCHOR THERAPEUTICS, published 2013)
Ends that are not written are not given here. * marks the point of attachment. Palmitoyl = CCCCCCCCCCCCCCCC(=O)*

B1: CXCR4 i2 loop compound 82 (peptide)
peptide: Palmitoyl-HATNSQRPRKLLAEK-NH2
SMILES: CCCCCCCCCCCCCCCC(=O)N[C@@H](Cc1c[nH]cn1)C(=O)N[C@@H](C)C(=O)N[C@H](C(=O)N[C@@H](CC(N)=O)C(=O)N[C@@H](CO)C(=O)N[C@@H](CCC(N)=O)C(=O)N[C@@H](CCCNC(=N)N)C(=O)N1CCC[C@H]1C(=O)N[C@@H](CCCNC(=N)N)C(=O)N[C@@H](CCCCN)C(=O)N[C@@H](CC(C)C)C(=O)N[C@@H](CC(C)C)C(=O)N[C@@H](C)C(=O)N[C@@H](CCC(=O)O)C(=O)N[C@@H](CCCCN)C(N)=O)[C@@H](C)O
B2: CXCR4 i2 loop compound 83 (peptide)
peptide: Palmitoyl-HATNSQRPRKLLAEKV-NH2
SMILES: CCCCCCCCCCCCCCCC(=O)N[C@@H](Cc1c[nH]cn1)C(=O)N[C@@H](C)C(=O)N[C@H](C(=O)N[C@@H](CC(N)=O)C(=O)N[C@@H](CO)C(=O)N[C@@H](CCC(N)=O)C(=O)N[C@@H](CCCNC(=N)N)C(=O)N1CCC[C@H]1C(=O)N[C@@H](CCCNC(=N)N)C(=O)N[C@@H](CCCCN)C(=O)N[C@@H](CC(C)C)C(=O)N[C@@H](CC(C)C)C(=O)N[C@@H](C)C(=O)N[C@@H](CCC(=O)O)C(=O)N[C@@H](CCCCN)C(=O)N[C@H](C(N)=O)C(C)C)[C@@H](C)O
B3: CXCR4 i2 loop compound 76 (peptide)
peptide: DRYLAIVHATNSQRPRKLL-NH2
modifications: not fully specified (N-terminus); also: second lipid on tether backbone (C31H62NC(O)- tether)
B4: CXCR4 i2 loop compound 78 (peptide)
peptide: Palmitoyl-VHATNSQRPRKLLA-NH2
SMILES: CCCCCCCCCCCCCCCC(=O)N[C@H](C(=O)N[C@@H](Cc1c[nH]cn1)C(=O)N[C@@H](C)C(=O)N[C@H](C(=O)N[C@@H](CC(N)=O)C(=O)N[C@@H](CO)C(=O)N[C@@H](CCC(N)=O)C(=O)N[C@@H](CCCNC(=N)N)C(=O)N1CCC[C@H]1C(=O)N[C@@H](CCCNC(=N)N)C(=O)N[C@@H](CCCCN)C(=O)N[C@@H](CC(C)C)C(=O)N[C@@H](CC(C)C)C(=O)N[C@@H](C)C(N)=O)[C@@H](C)O)C(C)C
B5: CXCR4 i2 loop compound 79 (peptide)
peptide: Palmitoyl-HATNSQRPRKL-NH2
SMILES: CCCCCCCCCCCCCCCC(=O)N[C@@H](Cc1c[nH]cn1)C(=O)N[C@@H](C)C(=O)N[C@H](C(=O)N[C@@H](CC(N)=O)C(=O)N[C@@H](CO)C(=O)N[C@@H](CCC(N)=O)C(=O)N[C@@H](CCCNC(=N)N)C(=O)N1CCC[C@H]1C(=O)N[C@@H](CCCNC(=N)N)C(=O)N[C@@H](CCCCN)C(=O)N[C@@H](CC(C)C)C(N)=O)[C@@H](C)O
B6: CXCR4 i2 loop compound 81 (peptide)
peptide: Palmitoyl-HATNSQRPRKLLAE-NH2
SMILES: CCCCCCCCCCCCCCCC(=O)N[C@@H](Cc1c[nH]cn1)C(=O)N[C@@H](C)C(=O)N[C@H](C(=O)N[C@@H](CC(N)=O)C(=O)N[C@@H](CO)C(=O)N[C@@H](CCC(N)=O)C(=O)N[C@@H](CCCNC(=N)N)C(=O)N1CCC[C@H]1C(=O)N[C@@H](CCCNC(=N)N)C(=O)N[C@@H](CCCCN)C(=O)N[C@@H](CC(C)C)C(=O)N[C@@H](CC(C)C)C(=O)N[C@@H](C)C(=O)N[C@@H](CCC(=O)O)C(N)=O)[C@@H](C)O
B7: CXCR4 i2 loop compound 80 (peptide)
peptide: Palmitoyl-HATNSQRPRKLLA-NH2
SMILES: CCCCCCCCCCCCCCCC(=O)N[C@@H](Cc1c[nH]cn1)C(=O)N[C@@H](C)C(=O)N[C@H](C(=O)N[C@@H](CC(N)=O)C(=O)N[C@@H](CO)C(=O)N[C@@H](CCC(N)=O)C(=O)N[C@@H](CCCNC(=N)N)C(=O)N1CCC[C@H]1C(=O)N[C@@H](CCCNC(=N)N)C(=O)N[C@@H](CCCCN)C(=O)N[C@@H](CC(C)C)C(=O)N[C@@H](CC(C)C)C(=O)N[C@@H](C)C(N)=O)[C@@H](C)O
B8: CXCR4 i4 loop compound 112 (peptide)
peptide: Palmitoyl-GAKFKTSAQHALTSVSRGSSLKILSGGK-NH2
SMILES: CCCCCCCCCCCCCCCC(=O)NCC(=O)N[C@@H](C)C(=O)N[C@@H](CCCCN)C(=O)N[C@@H](Cc1ccccc1)C(=O)N[C@@H](CCCCN)C(=O)N[C@H](C(=O)N[C@@H](CO)C(=O)N[C@@H](C)C(=O)N[C@@H](CCC(N)=O)C(=O)N[C@@H](Cc1c[nH]cn1)C(=O)N[C@@H](C)C(=O)N[C@@H](CC(C)C)C(=O)N[C@H](C(=O)N[C@@H](CO)C(=O)N[C@H](C(=O)N[C@@H](CO)C(=O)N[C@@H](CCCNC(=N)N)C(=O)NCC(=O)N[C@@H](CO)C(=O)N[C@@H](CO)C(=O)N[C@@H](CC(C)C)C(=O)N[C@@H](CCCCN)C(=O)N[C@H](C(=O)N[C@@H](CC(C)C)C(=O)N[C@@H](CO)C(=O)NCC(=O)NCC(=O)N[C@@H](CCCCN)C(N)=O)[C@@H](C)CC)C(C)C)[C@@H](C)O)[C@@H](C)O
B9: CXCR4 i4 loop compound 110 (peptide)
peptide: Palmitoyl-GAKFKTSAQHALTSVSRGSSLKILSKGKRGGSCFH-NH2
SMILES: CCCCCCCCCCCCCCCC(=O)NCC(=O)N[C@@H](C)C(=O)N[C@@H](CCCCN)C(=O)N[C@@H](Cc1ccccc1)C(=O)N[C@@H](CCCCN)C(=O)N[C@H](C(=O)N[C@@H](CO)C(=O)N[C@@H](C)C(=O)N[C@@H](CCC(N)=O)C(=O)N[C@@H](Cc1c[nH]cn1)C(=O)N[C@@H](C)C(=O)N[C@@H](CC(C)C)C(=O)N[C@H](C(=O)N[C@@H](CO)C(=O)N[C@H](C(=O)N[C@@H](CO)C(=O)N[C@@H](CCCNC(=N)N)C(=O)NCC(=O)N[C@@H](CO)C(=O)N[C@@H](CO)C(=O)N[C@@H](CC(C)C)C(=O)N[C@@H](CCCCN)C(=O)N[C@H](C(=O)N[C@@H](CC(C)C)C(=O)N[C@@H](CO)C(=O)N[C@@H](CCCCN)C(=O)NCC(=O)N[C@@H](CCCCN)C(=O)N[C@@H](CCCNC(=N)N)C(=O)NCC(=O)NCC(=O)N[C@@H](CO)C(=O)N[C@@H](CS)C(=O)N[C@@H](Cc1ccccc1)C(=O)N[C@@H](Cc1c[nH]cn1)C(N)=O)[C@@H](C)CC)C(C)C)[C@@H](C)O)[C@@H](C)O
B10: CXCR4 i4 loop compound 107 (peptide)
peptide: GAKFKTSAQHALTSVSRGSSLKILSKGKRGGHSSVST-NH2
modifications: not fully specified (N-terminus); also: dual lipid, backbone lipid not given here
B11: CXCR4 i4 loop compound 109 (peptide)
peptide: Palmitoyl-GAKFKTSAQHALTSVSRGSSLKILSKGKRGGHSSVST-NH2
SMILES: CCCCCCCCCCCCCCCC(=O)NCC(=O)N[C@@H](C)C(=O)N[C@@H](CCCCN)C(=O)N[C@@H](Cc1ccccc1)C(=O)N[C@@H](CCCCN)C(=O)N[C@H](C(=O)N[C@@H](CO)C(=O)N[C@@H](C)C(=O)N[C@@H](CCC(N)=O)C(=O)N[C@@H](Cc1c[nH]cn1)C(=O)N[C@@H](C)C(=O)N[C@@H](CC(C)C)C(=O)N[C@H](C(=O)N[C@@H](CO)C(=O)N[C@H](C(=O)N[C@@H](CO)C(=O)N[C@@H](CCCNC(=N)N)C(=O)NCC(=O)N[C@@H](CO)C(=O)N[C@@H](CO)C(=O)N[C@@H](CC(C)C)C(=O)N[C@@H](CCCCN)C(=O)N[C@H](C(=O)N[C@@H](CC(C)C)C(=O)N[C@@H](CO)C(=O)N[C@@H](CCCCN)C(=O)NCC(=O)N[C@@H](CCCCN)C(=O)N[C@@H](CCCNC(=N)N)C(=O)NCC(=O)NCC(=O)N[C@@H](Cc1c[nH]cn1)C(=O)N[C@@H](CO)C(=O)N[C@@H](CO)C(=O)N[C@H](C(=O)N[C@@H](CO)C(=O)N[C@H](C(N)=O)[C@@H](C)O)C(C)C)[C@@H](C)CC)C(C)C)[C@@H](C)O)[C@@H](C)O

molecular target: T1, CXCR4 receptor (human, UniProt P61073 1-352); assay: cell-based or functional assay
T1 sequence (P61073 whole entry): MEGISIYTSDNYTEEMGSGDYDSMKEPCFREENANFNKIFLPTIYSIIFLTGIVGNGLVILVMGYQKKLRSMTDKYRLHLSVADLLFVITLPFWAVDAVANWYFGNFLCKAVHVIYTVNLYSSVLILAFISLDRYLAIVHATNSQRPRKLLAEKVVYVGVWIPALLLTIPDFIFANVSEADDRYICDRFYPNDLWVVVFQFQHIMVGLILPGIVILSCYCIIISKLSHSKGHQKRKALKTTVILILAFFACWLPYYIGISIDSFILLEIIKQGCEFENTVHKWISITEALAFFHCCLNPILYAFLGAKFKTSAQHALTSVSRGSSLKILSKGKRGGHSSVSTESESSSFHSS

Binder | AUC (% of vehicle), chemotaxis, SUPB-15, 1.0 uM | Max (% of vehicle), chemotaxis, SUPB-15, 1.0 uM | Peak Ratio, chemotaxis, SUPB-15, 1.0 uM
B1 | 125 % of vehicle | 126 % of vehicle | 0.2
B2 | 126 % of vehicle | 110 % of vehicle | 1
B3 | – | – | 1
B4 | 71.8 % of vehicle | 72.3 % of vehicle | 0.2
B5 | 109 % of vehicle | 110 % of vehicle | 0.2
B6 | 79.8 % of vehicle | 76.5 % of vehicle | 0.2
B7 | 102 % of vehicle | 69 % of vehicle | 0.2

molecular target: T1, CXCR4 receptor; assay: cell-based or functional assay; remark: another data set of the same source

Binder | AUC (% of Vehicle), CHTX, CEM, 1.0 uM | Max (% of Vehicle), CHTX, CEM, 1.0 uM | Peak Ratio, CHTX, CEM, 1.0 uM
B8 | 48.9 % of Vehicle | 54.7 % of Vehicle | 0.2
B9 | 41 % of Vehicle | 42.1 % of Vehicle | 1
B10 | 57.3 % of Vehicle | 49.5 % of Vehicle | 5
GAKFKTSAQHALTSVSRGSSLKILSKGKRG-NH2 (not fully specified (N-terminus)) [CXCR4 i4 loop compound 108] | 89.5 % of Vehicle | 83.9 % of Vehicle | 5
B11 | 49.3 % of Vehicle | 49.8 % of Vehicle | 0.04
